B1: purified recombinant mouse RNase L (enzyme)
chain: METPDYNTPQGGTPSAGSQRTVVEDDSSLIKAVQKGDVVRVQQLLEKGADANACEDTWGWTPLHNAVQAGRVDIVNLLLSHGADPHRRKKNGATPFIIAGIQGDVKLLEILLSCGADVNECDENGFTAFMEAAERGNAEALRFLFAKGANVNLRRQTTKDKRRLKQGGATALMSAAEKGHLEVLRILLNDMKAEVDARDNMGRNALIRTLLNWDCENVEEITSILIQHGADVNVRGERGKTPLIAAVERKHTGLVQMLLSREGINIDARDNEGKTALLIAVDKQLKEIVQLLLEKGADKCDDLVWIARRNHDYHLVKLLLPYVANPDTDPPAGDWSPHSSRWGTALKSLHSMTRPMIGKLKIFIHDDYKIAGTSEGAVYLGIYDNREVAVKVFRENSPRGCKEVSCLRDCGDHSNLVAFYGREDDKGCLYVCVSLCEWTLEEFLRLPREEPVENGEDKFAHSILLSIFEGVQKLHLHGYSHQDLQPQNILIDSKKAVRLADFDQSIRWMGESQMVRRDLEDLGRLVLYVVMKGEIPFETLKTQNDEVLLTMSPDEETKDLIHCLFSPGENVKNCLVDLLGHPFFWTWENRYRTLRNVGNESDIKVRKCKSDLLRLLQHQTLEPPRSFDQWTSKIDKNVMDEMNHFYEKRKKNPYQDTVGDLLKFIRNIGEHINEEKKRGMKEILGDPSRYFQETFPDLVIYIYKKLKETEYRKHFPQPPPRLSVPEAVGPGGIQS
B2: (His)6-L* (purified recombinant L*DA) (natural protein)
chain: MDTQMCALFAQPLTLLPDLNICSWQTVNGSQRTFFVWTWTMTSSGLRTRAINLKQWNGLTYRSYAILSWNPRETPLHLTRVTPSPQVTKGSLLTTSIPINTKIQLICLPAVAMLATPPKTTDNCRTSWAALQMLLLLWHLSSWIKTQRRWRISLTE

Key:
[1] = target: T1, mouse RNase L (Mus musculus (mouse)) (UniProt Q05921); test: SPR competition; conditions: 2'-5' phosphodiester linkages; 5'-triphosphate; trimer p3A2'p5'A2'p5'A assumed (oligomer length used in SPR not stated); SPR on Biacore 3000; HBS-P SPR buffer (0.005% surfactant P20), 10 ul/min, 3 min association, 5 min dissociation, 25 C stated for GST-RNase L capture; 1:1 …
T1 sequence: B1 chain

[2] = target: B2; test: SPR; immobilized L*
[3] = target: B2; test: SPR; immobilized L*
[4] = target: (His)6-L* (purified recombinant L*DA) (Theiler's murine encephalomyelitis virus, strain DA); test: SPR; Biacore 3000; (His)6-L* immobilized on Ni-NTA chips, mouse or human RNase L injected; 10 μl/min, 3 min association, 5 min dissociation; 1:1 Langmuir model, global fitting
[5] = target: T2, purified recombinant GST-tagged murine RNase L (mouse, UniProt Q05921 1-735); test: SPR; immobilized mouse RNase L
T2 chain: B1 chain

[6] = target: T2, purified recombinant GST-tagged murine …; test: SPR; immobilized mouse RNase L
[7] = target: T2, purified recombinant GST-tagged murine …; test: SPR; immobilized mouse RNase L

## AAA [2-5A (unlabeled)]
[1]
  IC50: 13.2 nM

## B1
[2]
  Ka: 760000 M⁻¹
[3]
  koff: 0.0027 s⁻¹
[4]
  Kd: 1300 nM

## B2
[5]
  Ka: 2e+06 M⁻¹
[6]
  Kd: 490 nM
[7]
  koff: 0.0015 s⁻¹
